Paper PMC5209733, “U24 from Roseolovirus interacts strongly with Nedd4 WW Domains” (Scientific Reports, 2017)

Tests used:
[1] = target: hNedd4L-WW3* domain (third WW domain of human Nedd4-like protein, GST tag removed) (human) (UniProt Q96PU5); experiment: ITC; peptide titrated into the cleaved WW domain (40 to 150 uM) in the cell; 10 mM sodium phosphate, pH 7.4, 25 °C; MicroCal VP-ITC; bimolecular interaction model; three runs (further runs with 100 mM and 500 mM NaCl told in words only)
Fyn SH3 (Homo sapiens) = Fyn SH3 (Homo sapiens) (UniProt P06241); details: cited from earlier work
Sequence of Fyn SH3 (Homo sapiens) (P06241 79-146): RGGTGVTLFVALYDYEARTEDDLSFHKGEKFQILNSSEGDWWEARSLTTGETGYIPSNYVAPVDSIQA

[2] = target: hNedd4-WW3* domain (third WW domain of human Nedd4, GST tag removed) (human) (UniProt P46934); experiment: ITC; peptide titrated into the cleaved WW domain (40 to 150 uM) in the cell; 10 mM sodium phosphate, pH 7.4, 25 °C; MicroCal VP-ITC; bimolecular interaction model; three runs (further runs with 100 mM and 500 mM NaCl told in words only)
Sequence of hNedd4-WW3* domain (third WW domain of human Nedd4, GST tag removed) (human) (P46934 whole entry, the tested form may be a part): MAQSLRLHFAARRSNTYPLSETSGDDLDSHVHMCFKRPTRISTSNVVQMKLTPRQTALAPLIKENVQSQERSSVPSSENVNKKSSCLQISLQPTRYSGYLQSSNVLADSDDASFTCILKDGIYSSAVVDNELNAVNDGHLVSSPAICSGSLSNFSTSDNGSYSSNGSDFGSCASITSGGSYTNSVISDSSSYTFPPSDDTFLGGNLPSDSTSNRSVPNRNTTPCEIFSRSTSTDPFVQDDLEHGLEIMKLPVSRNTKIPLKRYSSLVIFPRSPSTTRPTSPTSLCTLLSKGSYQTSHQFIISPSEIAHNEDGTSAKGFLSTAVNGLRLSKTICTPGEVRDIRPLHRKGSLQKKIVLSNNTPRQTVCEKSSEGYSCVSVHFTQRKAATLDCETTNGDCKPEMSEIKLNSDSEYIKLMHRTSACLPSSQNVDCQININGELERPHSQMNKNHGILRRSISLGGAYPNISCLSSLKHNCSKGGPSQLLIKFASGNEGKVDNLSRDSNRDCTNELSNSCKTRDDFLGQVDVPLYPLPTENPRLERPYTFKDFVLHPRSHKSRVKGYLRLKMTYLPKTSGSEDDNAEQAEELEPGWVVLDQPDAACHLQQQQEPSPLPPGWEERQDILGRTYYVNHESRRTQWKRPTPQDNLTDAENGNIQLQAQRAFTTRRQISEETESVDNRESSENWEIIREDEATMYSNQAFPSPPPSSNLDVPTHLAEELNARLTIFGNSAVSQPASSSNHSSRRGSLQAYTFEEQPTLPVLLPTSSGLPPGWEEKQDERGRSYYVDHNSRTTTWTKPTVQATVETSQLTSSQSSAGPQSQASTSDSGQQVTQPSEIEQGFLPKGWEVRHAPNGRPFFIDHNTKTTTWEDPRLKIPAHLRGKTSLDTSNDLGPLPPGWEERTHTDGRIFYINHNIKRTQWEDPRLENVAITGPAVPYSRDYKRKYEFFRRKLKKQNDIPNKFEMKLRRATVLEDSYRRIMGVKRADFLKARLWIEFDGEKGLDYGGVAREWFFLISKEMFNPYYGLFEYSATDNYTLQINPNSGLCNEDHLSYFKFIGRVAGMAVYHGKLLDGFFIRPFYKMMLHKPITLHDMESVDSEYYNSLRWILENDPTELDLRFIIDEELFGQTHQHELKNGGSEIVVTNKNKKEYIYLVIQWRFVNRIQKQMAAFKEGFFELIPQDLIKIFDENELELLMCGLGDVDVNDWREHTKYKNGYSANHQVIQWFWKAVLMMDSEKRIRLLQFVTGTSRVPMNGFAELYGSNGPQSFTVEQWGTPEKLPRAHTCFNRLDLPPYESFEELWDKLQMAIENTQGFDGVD

[3] = target: rNedd4-WW2 domain (second WW domain of rat Nedd4, GST tag removed) (rat) (UniProt Q62940); experiment: as above
Sequence of rNedd4-WW2 domain (second WW domain of rat Nedd4, GST tag removed) (rat) (Q62940 whole entry, the tested form may be a part): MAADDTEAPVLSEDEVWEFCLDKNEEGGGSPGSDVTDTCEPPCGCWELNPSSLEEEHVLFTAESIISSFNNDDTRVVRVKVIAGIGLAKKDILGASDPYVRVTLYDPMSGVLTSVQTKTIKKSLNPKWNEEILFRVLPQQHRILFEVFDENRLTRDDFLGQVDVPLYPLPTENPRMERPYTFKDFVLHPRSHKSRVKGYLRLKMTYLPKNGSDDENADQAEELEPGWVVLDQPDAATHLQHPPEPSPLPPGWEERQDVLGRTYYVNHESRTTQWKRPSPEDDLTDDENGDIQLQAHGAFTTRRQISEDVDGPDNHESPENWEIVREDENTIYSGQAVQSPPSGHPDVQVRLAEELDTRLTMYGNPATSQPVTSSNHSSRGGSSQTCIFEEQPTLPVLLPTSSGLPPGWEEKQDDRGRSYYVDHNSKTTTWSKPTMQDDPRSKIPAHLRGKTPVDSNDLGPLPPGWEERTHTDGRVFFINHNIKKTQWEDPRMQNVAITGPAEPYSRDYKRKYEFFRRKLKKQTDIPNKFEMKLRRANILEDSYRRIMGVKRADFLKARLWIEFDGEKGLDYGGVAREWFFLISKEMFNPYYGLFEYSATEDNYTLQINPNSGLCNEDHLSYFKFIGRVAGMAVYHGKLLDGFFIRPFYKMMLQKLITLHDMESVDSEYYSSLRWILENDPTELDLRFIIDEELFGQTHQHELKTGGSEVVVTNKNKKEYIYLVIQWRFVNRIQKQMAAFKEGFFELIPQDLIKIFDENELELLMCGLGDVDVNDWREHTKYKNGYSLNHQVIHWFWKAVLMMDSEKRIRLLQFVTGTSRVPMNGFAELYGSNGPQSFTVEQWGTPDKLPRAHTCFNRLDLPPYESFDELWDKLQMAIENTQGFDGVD

[4] = target: rNedd4-WW3/4 domain (third WW domain of rat Nedd4, GST tag removed) (rat) (UniProt Q62940); experiment: as above
Sequence of rNedd4-WW3/4 domain (third WW domain of rat Nedd4, GST tag removed) (rat) (Q62940 452-499): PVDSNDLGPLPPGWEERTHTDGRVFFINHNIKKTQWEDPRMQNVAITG

Sequence of hNedd4L-WW3* domain (third WW domain of human Nedd4-like protein, GST tag removed) (human) (Q96PU5 496-539): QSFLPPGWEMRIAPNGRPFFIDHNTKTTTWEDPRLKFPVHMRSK

Substance	Kd [1] [µM]	dH [1] [kcal/mol]	Kd (Fyn SH3 (Homo sapiens)) [µM]	Kd [2] [µM]	dH [2] [kcal/mol]	Kd [3] [µM]	dH [3] [kcal/mol]	Kd [4] [µM]	dH [4] [kcal/mol]
Nogo-A PY motif peptide	4	-13.8	–	–	–	–	–	–	–
U24-6A (from UniProt Q69559)	–	–	5000	–	–	–	–	–	–
U24-6A peptide (15-mer, N-terminus of U24 from HHV-6A) (from UniProt Q69559 1-15)	–	–	–	9.7	-12.7	155	-12.9	–	–
U24-7 peptide (15-mer, N-terminus of U24 from HHV-7)	–	–	–	1.98	-16.8	87	-18.2	21	-15.2
